Data reported in article PMC10232437 (Scientific Reports, 2023).

Target: the molecule itself
Experiment: non-reducing SDS-PAGE with western blot; insoluble fraction (final pellet after Triton X-100 extraction) of SN tissue from control, MPTP/probenecid and NSA-treated mice, resuspended by sonication in 2% SDS lysis buffer, loaded with non-reducing sample buffer; anti-MLKL blot

B1: mixed lineage kinase domain-like protein (natural protein, UniProt Q9D2Y4 1-472, looked up)
chain: MDKLGQIIKLGQLIYEQCEKMKYCRKQCQRLGNRVHGLLQPLQRLQAQGKKNLPDDITAALGRFDEVLKEANQQIEKFSKKSHIWKFVSVGNDKILFHEVNEKLRDVWEELLLLLQVYHWNTVSDVSQPASWQQEDRQDAEEDGNENMKVILMQLQISVEEINKTLKQCSLKPTQEIPQDLQIKEIPKEHLGPPWTKLKTSKMSTIYRGEYHRSPVTIKVFNNPQAESVGIVRFTFNDEIKTMKKFDSPNILRIFGICIDQTVKPPEFSIVMEYCELGTLRELLDREKDLTMSVRSLLVLRAARGLYRLHHSETLHRNISSSSFLVAGGYQVKLAGFELSKTQNSISRTAKSTKAERSSSTIYVSPERLKNPFCLYDIKAEIYSFGIVLWEIATGKIPFEGCDSKKIRELVAEDKKQEPVGQDCPELLREIINECRAHEPSQRPSVDGRSLSGRERILERLSAVEESTDKKV
notes: mixed lineage kinase domain-like protein (MLKL), mouse, endogenous in the substantia nigra of C57BL/6 mice; Seen as a tetramer band in the insoluble fraction (non-reducing sample buffer) and as an oligomer on an A11 blot; also called MLKL; source: endogenous, mouse substantia nigra tissue lysate
Question: Which “stoichiometry N” value does the source give for B1 here?
Answer: 4
